Experimental data: patent publication US20180086790A1

target: pheromone-biosynthesis-activating neuropeptide receptor (fire ant PBAN-R) (fire ant (Solenopsis invicta)); assay: phage display selection on Sf9 cells expressing PBAN-R, 3-4 rounds; count of sequenced clones

Row | Molecule | Abundance of phage clones
1 | CIQQGSHFC (loop-constrained by a pair of flanking cysteine (C) residues) [… (SEQ ID NO: 4)] | 3 clones
2 | CRGATPMSC (Cysteine-Cysteine S-S bond at the N- and C-terminal ends) [… (SEQ ID NO: 12)] | 2 clones
3 | CIVQGSHFC (loop-constrained by a pair of flanking cysteine (C) residues) [… (SEQ ID NO: 7)] | 2 clones
4 | CVKLGSHFC (Cysteine-Cysteine S-S bond at the N- and C-terminal ends) [… (SEQ ID NO: 6)] | 2 clones
5 | CQSINGHFC (loop-constrained by a pair of flanking cysteine (C) residues) [… (SEQ ID NO: 8)] | 2 clones

The remaining lines, values ahead:

Row | Abundance of phage clones | Molecule
6 | 2 clones | CVKQGTHFC (loop-constrained by a pair of flanking cysteine (C) residues) [… (SEQ ID NO: 9)]
7 | 2 clones | CMARYMSAC (Cysteine-Cysteine S-S bond at the N- and C-terminal ends) [… (SEQ ID NO: 11)]
8 | 7 clones | CLKIGSHFC (Cysteine-Cysteine S-S bond at the N- and C-terminal ends) [… (SEQ ID NO: 3)]
9 | 2 clones | CIVQGSHFC (loop-constrained by a pair of flanking cysteine (C) residues) [… (SEQ ID NO: 10)]
10 | 3 clones | CERVGSHFC (loop-constrained by a pair of flanking cysteine (C) residues) [… (SEQ ID NO: 5)]

target: pheromone-biosynthesis-activating neuropeptide receptor (fire ant PBAN-R) (fire ant (Solenopsis invicta)); assay: as above; remark: another data set of the same source

Row | Molecule | Abundance of phage clones
11 | ERVGTHF (SEQ ID NO: 20) (peptide) | 1 clones
12 | IKIGSHY (SEQ ID NO: 26) (peptide) | 1 clones
13 | IKVGPHY (SEQ ID NO: 25) (peptide) | 1 clones
14 | IQIGTHF (SEQ ID NO: 18) (peptide) | 1 clones
15 | LPMTKHV (SEQ ID NO: 30) (peptide) | 1 clones
16 | LPWQIHN (SEQ ID NO: 29) (peptide) | 1 clones
17 | NTGSPYE (SEQ ID NO: 36) (peptide) | 1 clones
18 | QQTKNYY (SEQ ID NO: 32) (peptide) | 1 clones
19 | QRIGLHY (SEQ ID NO: 27) (peptide) | 1 clones
20 | QSIGTHF (SEQ ID NO: 19) (peptide) | 1 clones
21 | TNANHYF (SEQ ID NO: 31) (peptide) | 1 clones
22 | TNGDSAR (SEQ ID NO: 33) (peptide) | 1 clones
23 | TQIGTHF (SEQ ID NO: 17) (peptide) | 1 clones
24 | YSSPSHF (SEQ ID NO: 23) (peptide) | 1 clones

Next, values leading:

Row | Abundance of phage clones | Molecule
25 | 1 clones | ERVGTHY (SEQ ID NO: 24) (peptide)
26 | 1 clones | HSRVSGT (SEQ ID NO: 21) (peptide)
27 | 1 clones | IHIGSHF (SEQ ID NO: 16) (peptide)
28 | 1 clones | IHXGTHF (SEQ ID NO: 22) (peptide)
29 | 1 clones | NTGGSMA (SEQ ID NO: 35) (peptide)
30 | 1 clones | SQLPWYS (SEQ ID NO: 34) (peptide)
31 | 1 clones | TXVGSHF (SEQ ID NO: 15) (peptide)
32 | 1 clones | VSRTSHL (SEQ ID NO: 28) (peptide)
